The results in this text go back to article PMC6522730, “NUDIX hydrolases with inorganic polyphosphate exo- and endopolyphosphatase activities in the glycosome, cytosol and nucleus of Trypanosoma brucei” (Bioscience Reports, 2019).

Substrate in series [1]: Nc1ncnc2c1ncn2[C@@H]1O[C@H](COP(=O)(O)OP(=O)(O)OP(=O)(O)O)[C@@H](O)[C@H]1O
The experiment in a line: Pi release, malachite green assay. The series is classed as biochemical, Trypanosoma brucei. The conditions noted are these: pH 8.0, 37°C, 6 mM MgCl2, 50 mM NaCl, 40 mM Hepes, 10 min. The text has this:
(§1) Pi release, malachite green assay on TbNH2

Substrate in series [2]: Nc1ncnc2c1ncn2[C@@H]1O[C@H](COP(=O)(O)OP(=O)(O)O)[C@@H](O)[C@H]1O
The experiment in a line: Pi release, malachite green assay. The series is classed as biochemical, Trypanosoma brucei. The note with it: pH 8.0, 37°C, 6 mM MgCl2, 50 mM NaCl, 40 mM Hepes, 10 min.
Source text: as §1

B1: TbNH2 (Trypanosoma brucei brucei TREU927) (protein)
chain: MYRKNVCVVIFNEDLNFLACQRIHEDKFQFVQGGVEEGDADIIRAAYREVHEEVGLFPEDLRLIGEIMPPSGDPHEFRYILHEGANLRHFGYVGQQQRLFLFYTPSSTIQRVRLVPPKGSVAKQEFSHVEWLPIDEIIERCPKEKQHIFVAVSKVAIPMAKAFLKTRSSI
notes: full-length ORF in pET32 Ek/LIC (N-terminal thioredoxin/His tag), E. coli BL21-CodonPlus (DE3), nickel column
As for B1, in series [1], the Km is 78.1 ± 16.3 µM, the Vmax turned out to be 0.0102 µmol/min/mg and the kcat/Km came out at 290000 M⁻¹ s⁻¹. In series [2], the Km came out at 46.5 ± 6.3 µM, the Vmax is 0.0056 µmol/min/mg and the kcat/Km turned out to be 270000 M⁻¹ s⁻¹.

In general, Km refers to the concentration of substrate that gives half-maximal velocity. Broadly, the Vmax is the top rate of the reaction or transport when substrate is in excess. By kcat/Km is commonly meant the turnover number divided by the Michaelis constant.
